Laboratory results from US20110123529A1 (published 2011).

B1: VHH#3E-His tag (VHH)
VHH: QVQLQESGGGLVQPGGSLRLSCAASGRTFSDHSGYTYTIGWFRQAPKEREFVARIYWSSGNTYYADSVKGRFAISRDIAKNTVDLTMNNLEPEDTAVYYCAARDGIPTSRSVESYNYWGQGTQVTVSS
notes: protein was purified by IMAC; also called TNF3E; VHH TNF3E
B2: MMP-12 P1-41 (VHH)
VHH: QVQLQDSGGGLVRTGDSLRLSCVVFGGTISTYAMGWFRRAPGKEREFVAAIDASGGFTEYADSVRGRFRIARDNPLSAVYLQMNSLKPEDTAFYYCAADKDRDTVVRFTTTPNEYDYWGQGTQVTVSS
notes: Tested as periplasmic extract, detected through its c-myc tag
B3: MMP-12 P5-29 (VHH)
VHH: QVQLQESGGGLVQAGGSLRLSCAASGRTFTVYTTGWFRQAPGKEREFVAAIDWSGSSTYYTDSVKGRFTISRDNTKNTVYLQMNSLKPEDTAVYYCAARDAIVGVTDTSGYRYWGQGTQVTVSS
notes: Selected on active MMP-12 on nitrocellulose (Hybond-C); also called clone P5-29
B4: MMP-12 P1-1 (VHH)
VHH: QVQLQESGGGLVQPGGSLRLSCVASGFTFSDYPMAWVRQAPGKGLEWISVINSGGVNTSYAASVKGRFTISRDNAKNTLFLQMNSLKPEDTAVYYCAKYSLKNEQYWRGQGTQVTVSS
notes: Tested as periplasmic extract, detected through its c-myc tag (pAX004: c-myc and hexahistidine tags)
B5: EGFR-B11 (VHH)
VHH: QVQLQDSGGGLVQAGGSLRLSCAASRFSSAQYAIGWFRQAPGKEREGVSYITFSGGPTGYADSVKGRFTVSRDNAKNTVYLQMNSLKPEDTAVYYCAARPYTRPGSMWVSSLYDNWGQGTQVTVSS
notes: From the internalization selection
B6: MMP-12 P1-44 (VHH)
VHH: QVQLQESGGGLVQPGGSLRLSCAASGFTFNNHWLYWVRQAQGKGLEWVSAINPGGSTVYLDSVKGRFTISRGNTKNTLYLQMNSLKSEDTAVYYCTKAMAWATDWDEYDLWGQGTQVTVSS
notes: as for B2
B7: MMP-12 P1-26 (VHH)
VHH: QVQLQESGGGLVRAGGSLRLSCVASGRTLSKYRMGWFRQFPGKERELVAEIEWKSSSTWYRDSVKGRFTISRDNAKNTVYLRMNSLKPEDTAVYYCAAATLGEPLVKYTYWGQGTQVTVSS
notes: as for B2
B8: EGFR-F11 (VHH)
VHH: QVQLQESGGRLVQAGGSLRLSCAASEHTFRGYAIGWFRQAPGKEREFVSSITYDGTLTNYADSVTGRFTISRDNAKNTVYLQMNSLKPEDTAVYVCAAGYSYRYTTLNQYDSWGQGTQVTVSS
notes: From the internalization selection; also called clone EGFR-F11

Legend:
human TNF-alpha = molecular target: T1, human TNF-alpha (human, UniProt P01375 77-233); test: competition ELISA: VHH preincubated with biotinylated TNF-alpha, binding to immobilized receptor extracellular domain
T1 construct: also called TNFα; biotinylated TNF-alpha
Method: 100 μl of this mixture was transferred to a well of a microtiter plate, in which the extracellular domain of the receptor was immobilized.

[1] = molecular target: T2, human MMP-12 catalytic domain (human, UniProt P39900 106-263); test: ELISA / dot blot on immobilized human MMP-12 catalytic domain, periplasmic extract, anti-c-myc detection
T2 construct: domain: catalytic domain; Sources: Prof; H. Tschesche (Universität Bielefeld) and Biomol Research laboratories Inc (SE 138-9090); also called human macrophage elastase
Method: To examine the clones selected using solid phase coated human MMP-12, plates were coated with human MMP-12 catalytic domain at a concentration of 1 μg/ml overnight at 4° C. Plates were washed 5 times with PBS/0.05% Tween-20. Wells were blocked with 1% skimmed milk for 2 hrs at room temperature. Periplasmic extracts (100 μl) were applied to the wells and incubated for 1 hour at room temperature. Plates were washed 5 times with PBS/0.05% Tween-20. Detection was performed using anti-c-myc antibody, followed by anti-mouse-HRP and ABTS/H₂O₂ as substrate. Plates were read at 405 nm after 30 minutes incubation at room temperature.
To examine the clones selected using membrane immobilized human MMP-12, 50 ng human MMP-12 catalytic domain samples were spotted on PVDF membrane as described in the manufacturers guidelines. 50 ng lysozyme was spotted as a negative control. The membranes were blocked with skimmed milk overnight at 4° C., washed 5 times with PBS and transferred to 1.5 ml tubes. Periplasmic extracts (100 μl) were tenfold diluted in 1% skimmed milk and 1 ml was applied per membrane (2 cm²) and rotated for 1 hour at room temperature. Membranes were washed 5 times with PBS/0.05% Tween-20. Detection was performed using anti-c-myc antibody, followed by anti-mouse-HRP and DAP as substrate. Membranes were incubated with substrate at room temperature until clear spots were visible.

[2] = molecular target: T3, active catalytic domain of MMP 7 (UniProt P09237 95-267); test: dot blot, 50 ng catalytic domain on Hybond C-extra, periplasmic extract, anti-c-myc detection
T3 construct: domain: catalytic domain
T3 sequence (looked up): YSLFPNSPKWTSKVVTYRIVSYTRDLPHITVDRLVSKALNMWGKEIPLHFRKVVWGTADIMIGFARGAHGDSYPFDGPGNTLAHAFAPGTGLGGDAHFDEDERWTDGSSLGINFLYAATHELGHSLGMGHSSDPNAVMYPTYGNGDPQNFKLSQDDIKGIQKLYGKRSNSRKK
Method: (§1) In order to check for non specific binding to other MMPs a similar approach was followed in which 50 ng of active catalytic domain of MMP 1, 2, 3, 7, 9 and 13 (all from Biomol Research laboratories Inc) was immobilized on Hybond C-extra. The membranes were blocked with skimmed milk overnight at 4° C., washed 5 times with PBS and transferred to 1.5 ml tubes. Periplasmic extracts (100 μl) were tenfold diluted in 1% skimmed milk and 1 ml was applied per membrane (2 cm²) and rotated for 1 hour at room temperature. Membranes were washed 5 times with PBS/0.05% Tween-20. Detection was performed using anti-c-myc antibody, followed by anti-mouse-HRP and DAP as substrate. Membranes were incubated with substrate at room temperature until clear spots were visible.

[3] = molecular target: T4, active catalytic domain of MMP 3 (UniProt P08254 100-272, limits assumed); test: as above
T4 construct: domain: catalytic domain
Method: as §1

[4] = molecular target: T5, active catalytic domain of MMP 2 (UniProt P08253 110-452, limits assumed); test: as above
T5 construct: domain: catalytic domain
Method: as §1

[5] = molecular target: T6, active catalytic domain of MMP 9 (UniProt P14780 107-444, limits assumed); test: as above
T6 construct: domain: catalytic domain
Method: as §1

[6] = molecular target: active catalytic domain of MMP 13 (UniProt P45452 104-274); test: as above
Method: as §1

[7] = molecular target: T7, active catalytic domain of MMP 1 (UniProt P03956 100-269, limits assumed); test: as above
T7 construct: domain: catalytic domain
T7 sequence (looked up): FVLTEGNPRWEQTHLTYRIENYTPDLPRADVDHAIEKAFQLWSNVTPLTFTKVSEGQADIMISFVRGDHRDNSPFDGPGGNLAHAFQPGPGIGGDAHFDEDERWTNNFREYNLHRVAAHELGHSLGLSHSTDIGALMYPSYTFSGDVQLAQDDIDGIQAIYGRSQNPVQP
Method: as §1

[8] = molecular target: T8, human EGFR expressed on cells (Her-14 mouse fibroblasts; A431 carcinoma cells) (human, UniProt P00533 25-1210); test: phage ELISA on cells
T8 construct: whole, on cells; Parental NIH3T3 clone 2.2 (3T3) cells served as EGFR-negative control; also called EGFR^+ cells

| Binder | binding result (human TNF-alpha) | binding result [1] | binding result [2] | binding result [3] | binding result [4] | binding result [5] | binding result [6] | binding result [7] | binding result [8] |
| --- | --- | --- | --- | --- | --- | --- | --- | --- | --- |
| B1 | binds |  |  |  |  |  |  |  |  |
| B2 |  | binds | no binding | no binding | no binding | no binding | no binding | no binding |  |
| B3 |  | binds |  |  |  |  |  |  |  |
| B4 |  | binds | no binding | no binding | no binding | no binding | no binding | no binding |  |
| B5 |  |  |  |  |  |  |  |  | binds |
| B6 |  | binds | no binding | no binding | no binding | no binding | no binding | no binding |  |
| B7 |  | binds | no binding | no binding | no binding | no binding | no binding | no binding |  |
| B8 |  |  |  |  |  |  |  |  | binds |
